Test results published in US20220033520A1.

Columns and labels:
[1] = biological target: human FcRn (FCGRT and beta-2 microglobulin) expressed on MDCK II cells (human) (UniProt P55899); experiment: cell-based or functional assay
[2] = biological target: human FcRn complex (FCGRT and beta-2 microglobulin), recombinant, purified (human) (UniProt P55899); experiment: SPR, protein L capture, pH 6, kinetic
[3] = biological target: human FcRn complex (FCGRT and beta-2 microglobulin), recombinant, purified (human) (UniProt P55899); experiment: SPR, protein L capture, pH 7.4, steady state

Chain of antibody comprising wild-type hIgG4 (Table 2) (Fc): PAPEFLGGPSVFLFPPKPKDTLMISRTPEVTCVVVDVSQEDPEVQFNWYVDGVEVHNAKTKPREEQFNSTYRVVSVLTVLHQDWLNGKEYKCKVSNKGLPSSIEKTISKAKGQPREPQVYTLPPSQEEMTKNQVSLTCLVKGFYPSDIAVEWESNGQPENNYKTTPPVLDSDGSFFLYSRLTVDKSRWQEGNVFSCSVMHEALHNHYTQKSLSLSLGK

Row | Substance | Transcytosis Normalized to WT (normalized to WT) [1] | Kd [2] [µM] | koff [2] [s⁻¹] | kon [2] [M⁻¹ s⁻¹] | Kd [3] [µM]
1 | anti-BACE1 hIgG1 antibody, Fc modification D7 (H433K/N434Y) | 9.4 | 0.0922 | 0.00192 | 20800 | –
2 | anti-BACE1 hIgG1 antibody, Fc modification S2 (N286E) | 1.7 | 0.303 | 0.00316 | 10400 | –
3 | anti-BACE1 hIgG1 antibody, Fc modification S7 (M428L) | 2 | 0.178 | 0.00202 | 11300 | –
4 | anti-BACE1 hIgG1 antibody, Fc modification S8 (H433K) | 2.9 | 0.363 | 0.0048 | 13200 | –
5 | anti-BACE1 hIgG1 antibody, Fc modification S9 (N434F) | 6.3 | 0.1 | 0.0419 | 418000 | –
6 | anti-BACE1 hIgG1 antibody, Fc modification S10 (N434W) | 26 | 0.0549 | 0.051 | 929000 | 5.53
7 | anti-BACE1 hIgG1 antibody, Fc modification S12 (Y436I) | 1.8 | 0.201 | 0.00193 | 9590 | –
8 | anti-BACE1 hIgG1 antibody, Fc modification T5 (M252Y/H433K/N434Y) | 112 | 0.034 | 0.0357 | 1.05e+06 | 0.73
9 | anti-BACE1 hIgG1 antibody, Fc modification T6 (M252Y/N434Y/Y436I) | 133 | – | – | – | 0.459
10 | anti-BACE1 hIgG1 antibody, Fc modification T7 (T307Q/N286E/N434Y) | 91 | 0.019 | 0.0177 | 931000 | 1.12
11 | anti-BACE1 hIgG1 antibody, Fc modification T8 (T307Q/Q311A/N434Y) | 64 | 0.037 | 0.0319 | 854000 | 1.68
12 | anti-BACE1 hIgG1 antibody, Fc modification T9 (T307Q/Q311I/N434Y) | 140 | 0.52 | 0.00767 | 14800 | 1.93
13 | anti-BACE1 hIgG1 antibody, Fc modification T12 (T307Q/N434Y/Y436I) | 112 | – | – | – | –
14 | anti-BACE1 hIgG1 antibody, Fc modification T13 (N286E/Q311A/N434Y) | 108 | 0.038 | 0.0327 | 852000 | 2.45
15 | anti-BACE1 hIgG1 antibody, Fc modification T14 (N286E/Q311I/N434Y) | 73 | 0.036 | 0.0278 | 772000 | 3.11
16 | anti-BACE1 hIgG1 antibody, Fc modification T17 (N286E/N434Y/Y436I) | 65 | 0.053 | 0.0334 | 631000 | 6.08
17 | anti-BACE1 hIgG1 antibody, Fc modification T18 (Q311A/M428L/N434Y) | 140 | – | – | – | –
18 | anti-BACE1 hIgG1 antibody, Fc modification T19 (Q311A/H433K/N434Y) | 55 | 0.0535 | 0.0096 | 179000 | 4.48
19 | anti-BACE1 hIgG1 antibody, Fc modification T22 (Q311I/H433K/N434Y) | 131 | 0.064 | – | – | 9.03
20 | anti-BACE1 hIgG4 antibody, Fc modification T6-IgG4 (M252Y/N434Y/Y436I) | 66 | – | – | – | 0.412
21 | antibody comprising wild-type hIgG1 (Table 2) | 1 | 0.732 | 0.0164 | 22300 | –

Now from value to substance:

Row | Transcytosis Normalized to WT (normalized to WT) [1] | Kd [2] [µM] | koff [2] [s⁻¹] | kon [2] [M⁻¹ s⁻¹] | Kd [3] [µM] | Substance
22 | 92 | 0.0124 | 0.0074 | 595000 | 0.76 | anti-BACE1 hIgG1 antibody, Fc modification D92 (M252W/N434W)
23 | 159 | 0.0573 | 0.0107 | 186000 | 1.27 | anti-BACE1 hIgG1 antibody, Fc modification Q4 (M252Y/Q311I/M428L/N434Y)
24 | 1.7 | 0.117 | 0.00172 | 14700 | – | anti-BACE1 hIgG1 antibody, Fc modification S1 (M252Y)
25 | 1.1 | – | – | – | – | anti-BACE1 hIgG1 antibody, Fc modification S4 (H310A)
26 | 1.7 | 0.171 | 0.00157 | 9190 | – | anti-BACE1 hIgG1 antibody, Fc modification S6 (Q311I)
27 | 7.8 | 0.0736 | 0.0141 | 191000 | – | anti-BACE1 hIgG1 antibody, Fc modification S11 (N434Y)
28 | 125 | 0.012 | 0.0101 | 874000 | 0.461 | anti-BACE1 hIgG1 antibody, Fc modification T1 (M252Y/T307Q/N434Y)
29 | 111 | 0.02 | 0.0178 | 908000 | 0.614 | anti-BACE1 hIgG1 antibody, Fc modification T2 (M252Y/Q311A/N434Y)
30 | 100 | 0.03 | 0.0201 | 660000 | 2.2 | anti-BACE1 hIgG1 antibody, Fc modification T4 (M252Y/M428L/N434Y)
31 | 65 | 0.037 | 0.0166 | 445000 | 4.8 | anti-BACE1 hIgG1 antibody, Fc modification T11 (T307Q/H433K/N434Y)
32 | 55 | 0.0667 | 0.0271 | 406000 | 4.98 | anti-BACE1 hIgG1 antibody, Fc modification T16 (N286E/H433K/N434Y)
33 | 71 | – | – | – | – | anti-BACE1 hIgG1 antibody, Fc modification T26 (H433K/N434Y/Y436I)
34 | 5.1 | 0.0992 | 0.00371 | 37400 | – | antibody comprising modified Fc M428L/N434A (LA) (Table 2)
35 | 1 | 0.563 | 0.0119 | 21100 | – | antibody comprising wild-type hIgG4 (Table 2)
